Test results published in CN111110862A.
“And” between values parts separate entries of the source, which are not always exact repeats. Equal values may be shown once.

Key:
[1] = target: 鼠CLDN18.2(mCLDN18.2) (mouse) (UniProt P56857); assay: cell ELISA on fixed mCLDN18.2+cell; background
[2] = target: 人CLDN18.2(hCLDN18.2) (human) (UniProt P56856); assay: flow cytometry, CF633-labelled antibody 2.5μg/ml on hCLDN18.2+cell; background
[3] = target: 人CLDN18.2(hCLDN18.2) (human) (UniProt P56856); assay: flow cytometry, CF488-labelled antibody 10μg/ml on hCLDN18.2+cell; range over the binding value and the time points
[4] = target: 人CLDN18.2(hCLDN18.2) (human) (UniProt P56856); assay: flow cytometry, CF633-labelled antibody 10μg/ml on hCLDN18.2+cell; range over the binding value and the time points

Sequence of UniProt P56857 (P56857 other isoform, or with tags, fused parts or gaps, form in doubt): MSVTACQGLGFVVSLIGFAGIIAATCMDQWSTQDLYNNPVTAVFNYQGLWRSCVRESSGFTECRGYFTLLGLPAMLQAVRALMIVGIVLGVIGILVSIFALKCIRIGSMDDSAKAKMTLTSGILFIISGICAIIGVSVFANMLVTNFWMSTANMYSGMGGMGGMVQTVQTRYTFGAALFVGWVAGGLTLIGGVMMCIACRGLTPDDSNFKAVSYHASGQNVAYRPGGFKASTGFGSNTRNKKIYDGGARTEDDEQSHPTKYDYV

**Q.** For Neg IgG (和靶点没有结合的非特异性抗体) (antibody), which Emax [1] is on record?
**A.** 0.19

**Q.** And the 结合值 (FACS读值) [2]?
**A.** 932

**Q.** And the 荧光强度值(本底) [3]?
**A.** 1280 to 3480

**Q.** And the 荧光强度值(本底) [4]?
**A.** 23.2 and 14.9
